From patent publication US20150246949A1, “Desmoglein 2 (DSG2) Binding Proteins and Uses Therefor” (UNIVERSITY OF WASHINGTON THROUGH ITS CENTER FOR …, priority 2012, published 2015)
Substitutions are numbered along the chain they refer to. In names and notes the source's numbering stands.

B1: dimeric Ad3 fiber knob mutant D261N (designed binder)
chain: MKVSALKEKVSALKEKVSALKEKVSALKEKVSALKEGSGGGSGGGSGGGSNSIALKNNTLWTGPKPEANCIIEYGKQNPDSKLTLILVKNGGIVNGYVTLMGASDYVNTLFKNKNVSINVELYFDATGHILPDSSSLKTDLELKYKQTADFSARGFMPSTTAYPFVLPNAGTHNENYIFGQCYYKASNGALFPLEVTVMLNKRLPDSRTSYVMTFLWSLNAGLAPETTQATLITSPFTFSYIREDD
B2: F265L (protein)
chain: B1 chain with N188D, F192L
B3: N186D, D261N, L296R: dimeric Ad3 fiber knob with combination of all three N186D, D261N, and L296R (protein)
chain: B1 chain with N113D, L223R
B4: dimeric Ad3 fiber knob mutant F265L (designed binder)
chain: B1 chain with N188D, F192L

Key:
[1] = target: T1, human DSG2 on cells (HeLa cells; polarized T84 cells) (human, UniProt Q14126 50-1118); test: attachment of 3H-labelled Ad3 virus (competitor) to HeLa cells pre-incubated with the dimeric knob
T1 construct: whole, on cells; also called HeLa cells, which express DSG2
T1 sequence: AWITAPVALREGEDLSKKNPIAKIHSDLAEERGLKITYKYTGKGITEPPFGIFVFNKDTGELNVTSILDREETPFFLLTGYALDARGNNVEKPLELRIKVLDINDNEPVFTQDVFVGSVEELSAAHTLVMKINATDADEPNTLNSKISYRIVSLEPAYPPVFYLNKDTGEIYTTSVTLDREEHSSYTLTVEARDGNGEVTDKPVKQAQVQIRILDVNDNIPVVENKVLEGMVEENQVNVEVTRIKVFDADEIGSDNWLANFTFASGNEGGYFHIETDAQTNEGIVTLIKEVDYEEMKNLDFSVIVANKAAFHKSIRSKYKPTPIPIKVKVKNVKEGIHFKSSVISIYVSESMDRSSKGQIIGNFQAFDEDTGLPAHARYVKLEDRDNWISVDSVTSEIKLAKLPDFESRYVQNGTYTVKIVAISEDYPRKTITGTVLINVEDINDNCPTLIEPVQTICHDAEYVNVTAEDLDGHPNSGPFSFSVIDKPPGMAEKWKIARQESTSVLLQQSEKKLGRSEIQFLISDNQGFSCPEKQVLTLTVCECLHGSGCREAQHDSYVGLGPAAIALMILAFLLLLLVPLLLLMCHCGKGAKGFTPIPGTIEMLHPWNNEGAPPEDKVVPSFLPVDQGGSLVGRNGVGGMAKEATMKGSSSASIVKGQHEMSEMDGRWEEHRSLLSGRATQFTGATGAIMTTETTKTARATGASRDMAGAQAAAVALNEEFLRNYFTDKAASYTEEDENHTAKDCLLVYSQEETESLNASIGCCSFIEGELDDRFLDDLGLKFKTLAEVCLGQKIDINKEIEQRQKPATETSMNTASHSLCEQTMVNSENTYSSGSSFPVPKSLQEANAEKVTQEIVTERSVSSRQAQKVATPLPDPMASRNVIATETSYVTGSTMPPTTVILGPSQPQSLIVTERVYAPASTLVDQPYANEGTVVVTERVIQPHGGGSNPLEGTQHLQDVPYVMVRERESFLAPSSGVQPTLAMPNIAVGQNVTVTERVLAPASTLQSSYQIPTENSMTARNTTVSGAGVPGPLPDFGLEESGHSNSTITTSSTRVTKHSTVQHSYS

[2] = target: T2, Recombinant human DSG2 protein (Leinco Technologies) (human, UniProt Q14126 50-609); test: Western blot of dimeric knob, soluble DSG2 as probe (Table 2: 0% residual binding)
T2 construct: also called soluble DSG2; soluble recombinant DSG2
T2 sequence: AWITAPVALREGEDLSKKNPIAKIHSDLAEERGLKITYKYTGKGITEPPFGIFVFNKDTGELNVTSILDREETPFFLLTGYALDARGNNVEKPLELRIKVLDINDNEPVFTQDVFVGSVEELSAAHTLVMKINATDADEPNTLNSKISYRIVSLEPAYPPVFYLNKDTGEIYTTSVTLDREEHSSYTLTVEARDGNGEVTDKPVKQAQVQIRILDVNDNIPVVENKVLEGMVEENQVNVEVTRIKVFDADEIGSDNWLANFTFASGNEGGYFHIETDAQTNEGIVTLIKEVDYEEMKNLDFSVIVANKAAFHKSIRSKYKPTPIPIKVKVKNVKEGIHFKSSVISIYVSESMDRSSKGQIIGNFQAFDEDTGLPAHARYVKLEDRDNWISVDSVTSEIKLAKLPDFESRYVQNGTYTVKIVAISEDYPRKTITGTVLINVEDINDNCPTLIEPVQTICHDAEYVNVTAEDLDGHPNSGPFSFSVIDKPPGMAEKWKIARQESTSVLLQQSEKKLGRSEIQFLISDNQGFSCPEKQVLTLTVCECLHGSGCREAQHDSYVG

[3] = target: T2, Recombinant human DSG2 protein (Leinco …); test: Western blot of dimeric knob (trimer band), soluble recombinant DSG2 as probe, anti-DSG2 mAb
[4] = target: T1, human DSG2 on cells (HeLa cells; …); test: cell-based or functional assay
[5] = target: T3, soluble recombinant DSG2 (Homo sapiens, UniProt Q14126); test: Western blot of dimeric Ad3 fiber knob mutants probed with soluble DSG2; format: binding; conditions: purified dimerized knob mutants
T3 construct: purchased Leinco Technologies, Inc. (St. Louis, Mo.)
T3 sequence (Q14126 50-609 limits assumed): T2 sequence
From the text: FIG. 1. Residues found to be critically involved in binding to DSG2. A) Shown are the amino acid sequences of the Ad3 and Ad14p1 fiber knob. Beta sheets present in the Ad3 knob (PDB accession number 1H7Z_A) and Ad14 knob (PDB: 3F0Y_A) are indicated by lines. Black arrows indicate residues within the Ad3 fiber knob which, when mutated individually, ablate or reduce binding to DSG2. […] B) Schematic structure of dimeric Ad3 fiber knob mutants. The fiber knob domain and one shaft motif was fused through a flexible linker to a homodimerizing K-coil domain (41). The proteins are self-dimerizing and can be purified by His-Ni-NTA affinity chromatography. C-F) Analysis of binding of dimeric Ad3 fiber knob mutants to soluble DSG2. C and D) Coomassie staining. 10 μg of purified Ad3 fiber knob (unboiled) were loaded per lane. Trimeric forms of the fiber knobs are indicated by an arrow. The gel contained SDS and the loading buffer containing DTT, which caused the disassembly of dimers of trimeric fiber knobs as previously reported (41). E and F): Western blot using soluble recombinant DSG2 as a probe, followed by anti-DSG2-mAb and anti-mouse IgG-HRP. For comparison, JO-1 (0.5 μg/lane) is shown. The Western blots were scanned and signals were quantified.
Mini-PROTEAN precast gels (BIO-RAD, Hercules, Calif.) with 4-15% gradient polyacrylamide were used. A total of […] protein mixed with 2× loading buffer (10 mM Tris-HCl, pH6.8, 200 mM DTT, 4% SDS, 20% glycerol, 0.2% bromophenol blue) was loaded per lane. Samples were either boiled (B) for 5 min or loaded unboiled (UB). The following running buffer was used: 25 mM Tris, pH8.3, 0.192 M glycine, 0.1% SDS. After electrophoresis, proteins were transferred to nitrocellulose and incubated with recombinant human DSG2 protein and anti-DSG2 antibodies as described previously (42). The Western blots were scanned and quantified using the ImageJ 1.32 software (National Institutes of Health, Bethesda, Md.). JO-1 band intensity was set as 100%. […]

[6] = tested on: Ad3-GFP virus; test: Competition of Ad3-GFP virus infection on HeLa cells; format: cell-based, adenovirus serotype 3 (Ad3)
Protocol: (§1) FIG. 3. Competition of Ad3 virus by dimerized Ad3 knob mutants. A) Relative attachment of ^3H-labeled Ad3 virus in the presence of dimeric fiber knob mutants. 1.8×10^5 HeLa cells were incubated with Ad3 knob mutants at a concentration of 2.5 and 100 μg/ml on ice for 1 hour. Then 400 pfu/cell of ^3H-Ad3 virus was added on ice for another hour. Unbound virus particles were washed away. Attachment of virus particles incubated with PBS was taken as 100%. N=3. B) Competition of Ad3-GFP virus infection on HeLa cells. 1.5×10^5 HeLa cells were seeded into 24 well plates. Cells were incubated with the Ad3 knob mutants at increasing concentrations for one hour at room temperature. 100 pfu/cell of Ad3-GFP virus were then added and GFP expression was analyzed 18 hours later by flow cytometry. Left panel: percentage of GFP positive cells. Right panel: mean fluorescence intensity. N=3. The standard deviation was less than 10%. C) Relative attachment of ^3H-labeled Ad3 virus in the presence of dimeric fiber knob mutants with multiple mutations. The study was performed as described in B) The standard deviation was less than 10%. D) Competition of Ad3-GFP virus infection on HeLa cells. The study was performed as described in C) The standard deviation was less than 10%.
FIG. 9. Analysis of dimeric Ad3 fiber knob mutants with increased affinity to DSG2. A) Competition of Ad3-GFP virus infection on HeLa cells with dimeric affinity-enhanced mutant Y250F and JO-1 (dimeric wt Ad3 fiber knob). The experimental setting is as described for FIG. 3C. left panel: percentage of GFP positive cells. Right panel: mean fluorescence intensity. N=3. The standard deviation was less than 10%. […] 100 pfu/cell of Ad3GFP virus were then added and GFP expression was analyzed 18 hours later. […]
Competition studies were performed on HeLa cells, which express DSG2 (42). […] Transduction was measured based on GFP expression (FIG. 3B). […] Dimeric Ad3 knob mutants with combined mutations were also analyzed for their ability to compete with Ad3 virus for attachment (FIG. 3C) and infection (FIG. 3D).

[7] = tested on: 3H-labeled Ad3 virus; test: Competition of 3H-labeled Ad3 virus attachment to HeLa cells; format: cell-based, adenovirus serotype 3 (Ad3)
Protocol: as §1, with “The study was performed as described in B) The standard deviation was less than 10%. D) Competition of Ad3-GFP virus infection on HeLa cells. The study was performed as described in C) The standard deviation was less than 10%.” left out
HeLa cells were detached from culture dishes by incubation with Versene and washed with PBS. […] After the last wash, the supernatant was removed and the cell-associated radioactivity was determined by a scintillation counter. The number of VP bound per cell was calculated by using the virion specific radioactivity and the number of cells.

[8] = HeLa cells, concentrations up to 200 ug/ml

Row | Molecule | Inhibition of attachment in the presence of dimeric knob (JO-1 = 100%) [1] | binding result [2] | Western blot residual DSG2 binding (wtAd3 knob = 100%) [3] | Inhibition of infection in the presence of dimeric knob (JO-1 = 100%) [4] | DSG2 binding in Western blot compared to JO-1 [5] | Competition of Ad3-GFP infection based on GFP expression ([6]; HeLa cells pre-incubated with knob, 100 pfu/cell Ad3-GFP, GFP at 18 hours) | Inhibition of attachment in the presence of dimeric knob (JO-1 = 100%) ([7]; Ad3 virus attachment to HeLa cells, N = 3) | Block of Ad3 binding [7, 8] | Block of Ad3 infection [6, 8]
1 | B1 | 45% | no binding | 0% | 5.3% | – | – | – | – | –
2 | B2 | – | – | – | – | almost completely ablated for DSG2 binding | least reduced | – | – | –
3 | B3 | – | – | – | – | highest level of ablation | – | 18.5% | did not block | did not block
4 | B4 | 55.6% | no binding | 0% | 17.6% | – | – | – | – | –
